In article PMC6275079 one finds percentage of coimmunoprecipitation with caveolin-1 data, which are given here for 2 substances.

The experiment addresses caveolin-1 (rat (endogenous in cerebellar granule neurons)) (UniProt P41350). Put plainly: co-IP; anti-caveolin-1 (sc-894) on ImmunoCruz IP/WB Optima matrix; 400 µg of CGN lysate treated with 1% Triton X-100 for 30 min, incubated overnight at 4 °C, washed with Tris-buffered saline; PKA and CaMK-II detected by Western blot in precipitate and supernatant, percent by densitometry. On the technique in general: In western blotting, separated proteins are transferred to a membrane and probed.
Sequence of UniProt P41350 (P41350 whole entry): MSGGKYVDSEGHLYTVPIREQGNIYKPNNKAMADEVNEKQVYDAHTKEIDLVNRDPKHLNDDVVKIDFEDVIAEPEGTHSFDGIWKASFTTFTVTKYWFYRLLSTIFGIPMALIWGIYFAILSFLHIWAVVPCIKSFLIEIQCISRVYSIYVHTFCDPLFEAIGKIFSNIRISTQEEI

With “calmodulin-dependent protein kinase II (from UniProt P11275 1-478) (enzyme)”, the percentage of coimmunoprecipitation with caveolin-1 was determined as 39%.

The substance “protein kinase A (from UniProt P27791 1-351) (enzyme)” showed a percentage of coimmunoprecipitation with caveolin-1 of 16%.
